# Source: patent publication US20150344570A1 (published 2015)
# T1: FcγRIIa R (FcγRIIa, allotype with Arg at position 131), extracellular domain with C-terminal His tag (human, UniProt P12318 34-217)
# T1 construct: extracellular domain; also called FcγRIIa R type; 2aR
# T1 sequence (looked up): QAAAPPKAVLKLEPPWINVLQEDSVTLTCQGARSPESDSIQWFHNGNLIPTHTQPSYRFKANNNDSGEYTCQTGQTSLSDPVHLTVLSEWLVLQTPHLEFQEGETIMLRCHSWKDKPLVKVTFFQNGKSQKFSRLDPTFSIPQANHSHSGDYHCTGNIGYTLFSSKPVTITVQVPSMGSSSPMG
# B1: GpH7-A5/GpH7-B3 variant S239_18N/GpL16-k0 (antibody, human IgG1, kappa)
# heavy 1: not shown
# heavy 2: not shown
# light: DIVMTQSPLSLPVTPGEPASISCQASESLVHSNRNTYLHWYLQKPGQSPQLLIYKVSNRFSGVPDRFSGSGSGTDFTLKISRVEAEDVGVYYCSQNTHVPPTFGQGTKVEIERTVAAPSVFIFPPSDEQLKSGTASVVCLLNNFYPREAKVQWKVDNALQSGNSQESVTEQDSKDSTYSLSSTLTLSKADYEKHKVYACEVTHQGLSSPVTKSFNRGEC
# notes: also called He Ab
# B2: GpH7-A5/GpH7-B3 variant S267_03V/GpL16-k0 (antibody, human IgG1, kappa)
# heavy 1: not shown
# heavy 2: not shown
# light: B1 light
# notes: also called He Ab
# B3: GpH7-A5/GpH7-B3 variant S267_06M/GpL16-k0 (antibody, human IgG1, kappa)
# heavy 1: not shown
# heavy 2: not shown
# light: B1 light
# notes: also called He Ab
# B4: GpH7-A5/GpH7-B3 variant S267_09D/GpL16-k0 (antibody, human IgG1, kappa)
# heavy 1: not shown
# heavy 2: not shown
# light: B1 light
# notes: also called He Ab
# B5: GpH7-A5/GpH7-B3 variant S267_19Q/GpL16-k0 (antibody, human IgG1, kappa)
# heavy 1: not shown
# heavy 2: not shown
# light: B1 light
# notes: also called He Ab
# B6: GpH7-A5/GpH7-B3 variant S298_06M/GpL16-k0 (antibody, human IgG1, kappa)
# heavy 1: not shown
# heavy 2: not shown
# light: B1 light
# notes: also called He Ab
# B7: GpH7-A5/GpH7-B3 variant S298_08L/GpL16-k0 (antibody, human IgG1, kappa)
# heavy 1: not shown
# heavy 2: not shown
# light: B1 light
# notes: also called He Ab
# B8: GpH7-A5/GpH7-B3 variant S324_04F/GpL16-k0 (antibody, human IgG1, kappa)
# heavy 1: not shown
# heavy 2: not shown
# light: B1 light
# notes: also called He Ab
# B9: GpH7-A5/GpH7-B3 variant S324_06M/GpL16-k0 (antibody, human IgG1, kappa)
# heavy 1: not shown
# heavy 2: not shown
# light: B1 light
# notes: also called He Ab
# B10: GpH7-A5/GpH7-B3 variant S337_03V/GpL16-k0 (antibody, human IgG1, kappa)
# heavy 1: not shown
# heavy 2: not shown
# light: B1 light
# notes: also called He Ab
# B11: GpH7-A5/GpH7-B3 variant S337_04F/GpL16-k0 (antibody, human IgG1, kappa)
# heavy 1: not shown
# heavy 2: not shown
# light: B1 light
# notes: also called He Ab
# B12: GpH7-A5/GpH7-B3 variant S337_06M/GpL16-k0 (antibody, human IgG1, kappa)
# heavy 1: not shown
# heavy 2: not shown
# light: B1 light
# notes: also called He Ab
# B13: GpH7-A5/GpH7-B3 variant S337_07I/GpL16-k0 (antibody, human IgG1, kappa)
# heavy 1: not shown
# heavy 2: not shown
# light: B1 light
# notes: also called He Ab
# B14: GpH7-A5/GpH7-B3 variant S337_08L/GpL16-k0 (antibody, human IgG1, kappa)
# heavy 1: not shown
# heavy 2: not shown
# light: B1 light
# notes: also called He Ab
# B15: GpH7-A5/GpH7-B3 variant S337_09D/GpL16-k0 (antibody, human IgG1, kappa)
# heavy 1: not shown
# heavy 2: not shown
# light: B1 light
# notes: also called He Ab
# B16: GpH7-A5/GpH7-B3 variant S337_10E/GpL16-k0 (antibody, human IgG1, kappa)
# heavy 1: not shown
# heavy 2: not shown
# light: B1 light
# notes: also called He Ab
# B17: GpH7-A5/GpH7-B3 variant S337_11K/GpL16-k0 (antibody, human IgG1, kappa)
# heavy 1: not shown
# heavy 2: not shown
# light: B1 light
# notes: also called He Ab
# B18: GpH7-A5/GpH7-B3 variant S337_12R/GpL16-k0 (antibody, human IgG1, kappa)
# heavy 1: not shown
# heavy 2: not shown
# light: B1 light
# notes: also called He Ab
# B19: GpH7-A5/GpH7-B3 variant S337_15Y/GpL16-k0 (antibody, human IgG1, kappa)
# heavy 1: not shown
# heavy 2: not shown
# light: B1 light
# notes: also called He Ab
# B20: GpH7-A5/GpH7-B3 variant S337_16H/GpL16-k0 (antibody, human IgG1, kappa)
# heavy 1: not shown
# heavy 2: not shown
# light: B1 light
# notes: also called He Ab
# B21: GpH7-A5/GpH7-B3 variant S337_18N/GpL16-k0 (antibody, human IgG1, kappa)
# heavy 1: not shown
# heavy 2: not shown
# light: B1 light
# notes: also called He Ab
# B22: GpH7-A5/GpH7-B3 variant S337_19Q/GpL16-k0 (antibody, human IgG1, kappa)
# heavy 1: not shown
# heavy 2: not shown
# light: B1 light
# notes: also called He Ab
# B23: GpH7-A5/GpH7-B3 variant S337_20W/GpL16-k0 (antibody, human IgG1, kappa)
# heavy 1: not shown
# heavy 2: not shown
# light: B1 light
# notes: also called He Ab
# B24: GpH7-A5/GpH7-B3 variant T335_01G/GpL16-k0 (antibody, human IgG1, kappa)
# heavy 1: not shown
# heavy 2: not shown
# light: B1 light
# notes: also called He Ab
# B25: GpH7-A5/GpH7-B3 variant T335_02A/GpL16-k0 (antibody, human IgG1, kappa)
# heavy 1: not shown
# heavy 2: not shown
# light: B1 light
# notes: also called He Ab
# B26: GpH7-A5/GpH7-B3 variant T335_05P/GpL16-k0 (antibody, human IgG1, kappa)
# heavy 1: not shown
# heavy 2: not shown
# light: B1 light
# notes: also called He Ab
# B27: GpH7-A5/GpH7-B3 variant T335_07I/GpL16-k0 (antibody, human IgG1, kappa)
# heavy 1: not shown
# heavy 2: not shown
# light: B1 light
# notes: also called He Ab
# B28: GpH7-A5/GpH7-B3 variant T335_10E/GpL16-k0 (antibody, human IgG1, kappa)
# heavy 1: not shown
# heavy 2: not shown
# light: B1 light
# notes: also called He Ab
# B29: GpH7-A5/GpH7-B3 variant T335_12R/GpL16-k0 (antibody, human IgG1, kappa)
# heavy 1: not shown
# heavy 2: not shown
# light: B1 light
# notes: also called He Ab
# B30: GpH7-A5/GpH7-B3 variant T335_13S/GpL16-k0 (antibody, human IgG1, kappa)
# heavy 1: not shown
# heavy 2: not shown
# light: B1 light
# notes: also called He Ab
# B31: GpH7-A5/GpH7-B3 variant T335_15Y/GpL16-k0 (antibody, human IgG1, kappa)
# heavy 1: not shown
# heavy 2: not shown
# light: B1 light
# notes: also called He Ab
# B32: GpH7-A5/GpH7-B3 variant T335_16H/GpL16-k0 (antibody, human IgG1, kappa)
# heavy 1: not shown
# heavy 2: not shown
# light: B1 light
# notes: also called He Ab
# B33: GpH7-A5/GpH7-B3 variant T335_18N/GpL16-k0 (antibody, human IgG1, kappa)
# heavy 1: not shown
# heavy 2: not shown
# light: B1 light
# notes: also called He Ab
# B34: GpH7-A5/GpH7-B3 variant T335_19Q/GpL16-k0 (antibody, human IgG1, kappa)
# heavy 1: not shown
# heavy 2: not shown
# light: B1 light
# notes: also called He Ab
# B35: GpH7-A5/GpH7-B3 variant T335_20W/GpL16-k0 (antibody, human IgG1, kappa)
# heavy 1: not shown
# heavy 2: not shown
# light: B1 light
# notes: also called He Ab
# B36: GpH7-A5/GpH7-B3 variant V266_06M/GpL16-k0 (antibody, human IgG1, kappa)
# heavy 1: not shown
# heavy 2: not shown
# light: B1 light
# notes: also called He Ab
# B37: GpH7-A5/GpH7-B3 variant Y296_04F/GpL16-k0 (antibody, human IgG1, kappa)
# heavy 1: not shown
# heavy 2: not shown
# light: B1 light
# notes: also called He Ab
# B38: GpH7-A5/GpH7-B3 variant Y296_06M/GpL16-k0 (antibody, human IgG1, kappa)
# heavy 1: not shown
# heavy 2: not shown
# light: B1 light
# notes: also called He Ab
# B39: GpH7-A5/GpH7-B3 variant Y296_07I/GpL16-k0 (antibody, human IgG1, kappa)
# heavy 1: not shown
# heavy 2: not shown
# light: B1 light
# notes: also called He Ab
# B40: GpH7-A5/GpH7-B3 variant Y296_09D/GpL16-k0 (antibody, human IgG1, kappa)
# heavy 1: not shown
# heavy 2: not shown
# light: B1 light
# notes: also called He Ab
# B41: GpH7-A5/GpH7-B3 variant Y296_10E/GpL16-k0 (antibody, human IgG1, kappa)
# heavy 1: not shown
# heavy 2: not shown
# light: B1 light
# notes: also called He Ab
# B42: GpH7-A5/GpH7-B3 variant Y296_13S/GpL16-k0 (antibody, human IgG1, kappa)
# heavy 1: not shown
# heavy 2: not shown
# light: B1 light
# notes: also called He Ab
# B43: GpH7-A5/GpH7-B3 variant Y296_14T/GpL16-k0 (antibody, human IgG1, kappa)
# heavy 1: not shown
# heavy 2: not shown
# light: B1 light
# notes: also called He Ab
# B44: GpH7-A5/GpH7-B3 variant Y296_16H/GpL16-k0 (antibody, human IgG1, kappa)
# heavy 1: not shown
# heavy 2: not shown
# light: B1 light
# notes: also called He Ab
# Biological target: T1, FcγRIIa R (FcγRIIa, allotype with Arg …)
# Experiment: SPR (Biacore), antibody captured on antigen peptide chip, FcγR as analyte; relative binding
# Procedure: Analysis of interaction between objective antibody and the FcγR was carried out using Biacore T100 (GE Healthcare). HBS-EP+ (GE Healthcare) was used as the running buffer, and the measurement temperature was set to 25° C. Chips produced by immobilizing the antigen peptide by the amine coupling method to a Series S Sencor Chip CM5 (GE Healthcare), or alternatively, chips produced by allowing preliminarily biotinylated antigen peptides to interact with and immobilize onto a Series S Sensor Chip SA (certified) (GE Healthcare) were used. Antibodies of interest were captured onto an antigen peptide-immobilized chip, and allowed to interact to each FcγR diluted with running buffer. To regenerate and repeatedly use the chip, the antibodies captured on the chip were washed off by reacting 10 mM glycine-HCl, pH 1.5.
row,Binder,He/Con_2aR
1,B1,111 % of GpH7-A5/GpH7-B3/GpL16-k0 (=100)
2,B2,116 % of GpH7-A5/GpH7-B3/GpL16-k0 (=100)
3,B3,122 % of GpH7-A5/GpH7-B3/GpL16-k0 (=100)
4,B4,173 % of GpH7-A5/GpH7-B3/GpL16-k0 (=100)
5,B5,135 % of GpH7-A5/GpH7-B3/GpL16-k0 (=100)
6,B6,108 % of GpH7-A5/GpH7-B3/GpL16-k0 (=100)
7,B7,105 % of GpH7-A5/GpH7-B3/GpL16-k0 (=100)
8,B8,104 % of GpH7-A5/GpH7-B3/GpL16-k0 (=100)
9,B9,123 % of GpH7-A5/GpH7-B3/GpL16-k0 (=100)
10,B10,106 % of GpH7-A5/GpH7-B3/GpL16-k0 (=100)
11,B11,105 % of GpH7-A5/GpH7-B3/GpL16-k0 (=100)
12,B12,105 % of GpH7-A5/GpH7-B3/GpL16-k0 (=100)
13,B13,109 % of GpH7-A5/GpH7-B3/GpL16-k0 (=100)
14,B14,107 % of GpH7-A5/GpH7-B3/GpL16-k0 (=100)
15,B15,115 % of GpH7-A5/GpH7-B3/GpL16-k0 (=100)
16,B16,112 % of GpH7-A5/GpH7-B3/GpL16-k0 (=100)
17,B17,103 % of GpH7-A5/GpH7-B3/GpL16-k0 (=100)
18,B18,107 % of GpH7-A5/GpH7-B3/GpL16-k0 (=100)
19,B19,105 % of GpH7-A5/GpH7-B3/GpL16-k0 (=100)
20,B20,109 % of GpH7-A5/GpH7-B3/GpL16-k0 (=100)
21,B21,107 % of GpH7-A5/GpH7-B3/GpL16-k0 (=100)
22,B22,106 % of GpH7-A5/GpH7-B3/GpL16-k0 (=100)

row,Binder,He/Con_2aR
1,B23,110 % of GpH7-A5/GpH7-B3/GpL16-k0 (=100)
2,B24,104 % of GpH7-A5/GpH7-B3/GpL16-k0 (=100)
3,B25,102 % of GpH7-A5/GpH7-B3/GpL16-k0 (=100)
4,B26,104 % of GpH7-A5/GpH7-B3/GpL16-k0 (=100)
5,B27,109 % of GpH7-A5/GpH7-B3/GpL16-k0 (=100)
6,B28,111 % of GpH7-A5/GpH7-B3/GpL16-k0 (=100)
7,B29,100 % of GpH7-A5/GpH7-B3/GpL16-k0 (=100)
8,B30,110 % of GpH7-A5/GpH7-B3/GpL16-k0 (=100)
9,B31,111 % of GpH7-A5/GpH7-B3/GpL16-k0 (=100)
10,B32,108 % of GpH7-A5/GpH7-B3/GpL16-k0 (=100)
11,B33,106 % of GpH7-A5/GpH7-B3/GpL16-k0 (=100)
12,B34,106 % of GpH7-A5/GpH7-B3/GpL16-k0 (=100)
13,B35,109 % of GpH7-A5/GpH7-B3/GpL16-k0 (=100)
14,B36,150 % of GpH7-A5/GpH7-B3/GpL16-k0 (=100)
15,B37,109 % of GpH7-A5/GpH7-B3/GpL16-k0 (=100)
16,B38,101 % of GpH7-A5/GpH7-B3/GpL16-k0 (=100)
17,B39,101 % of GpH7-A5/GpH7-B3/GpL16-k0 (=100)
18,B40,106 % of GpH7-A5/GpH7-B3/GpL16-k0 (=100)
19,B41,103 % of GpH7-A5/GpH7-B3/GpL16-k0 (=100)
20,B42,102 % of GpH7-A5/GpH7-B3/GpL16-k0 (=100)
21,B43,103 % of GpH7-A5/GpH7-B3/GpL16-k0 (=100)
22,B44,105 % of GpH7-A5/GpH7-B3/GpL16-k0 (=100)
